Where two headings read alike, the source gives them in different places. One block for each binder: values may come before it.
Assays:
[1] = biological target: T1, human Claudin 18.2 (CLDN18.2) (human, UniProt P56856-2 1-261); assay: cell-based or functional assay
[2] = biological target: T1, human Claudin 18.2 (CLDN18.2); assay: cell-based or functional assay; remark: listed apart in the source
[3] = biological target: T1, human Claudin 18.2 (CLDN18.2); assay: FACS on CHO-CLDN18.2 cells
[4] = biological target: T1, human Claudin 18.2 (CLDN18.2); assay: cell-based or functional assay; remark: listed apart in the source
[5] = biological target: T1, human Claudin 18.2 (CLDN18.2); assay: cell-based or functional assay; remark: listed apart in the source
[6] = biological target: T1, human Claudin 18.2 (CLDN18.2); assay: cell-based or functional assay; remark: listed apart in the source
[7] = biological target: T2, CLDN18.2 endogenously expressed on SNU620 gastric cancer cells (UniProt P56856-2 1-261, limits assumed); assay: FACS on SNU620 cells
T2 construct: whole, on cells; also called SU620

[8] = biological target: T1, human Claudin 18.2 (CLDN18.2); assay: FACS on CHO-CLDN18.2 cells; remark: listed apart in the source
[9] = biological target: T3, CLDN18.2 endogenously expressed on SNU601 gastric cancer cells (UniProt P56856-2 1-261); assay: FACS on SNU601 cells
T3 construct: whole, on cells

[10] = biological target: T1, human Claudin 18.2 (CLDN18.2); assay: FACS on CHO-18.2 cells @30 ug/ml

B1: 413H9F8-cp2 (antibody, V domains shown)
VH: DVQLVESGGGLVQPGGSLRLSCAASGFTFSSFGMHWVRQAPGKGLEWVAYISSGSSPIYYVDKLKGRFTISRDNAKNSLYLQMNSLRAEDTAVYYCARAGYAVRNALDYWGQGTLVTVSS
VL: EIVMTQSPPTLSLSPGERVTLSCKSSQSLLNVGNQKNYLAWYQQKPGQAPRLLIYGASTRESGIPARFSGSGSGTDFTLTISSLQPEDFAVYYCQNDLFYPLTFGGGTKVEIK
notes: humanized IgG; constant regions not specified
- ADCC EC50, NUGC4-CLDN18.2, PBMC [1]: 0.0492 nM
- % ADCC @ 6.67 nM, NCI-N87-CLDN18.2, FcR-TANK [2]: 13.2%
- ADCC EC50, NCI-N87-CLDN18.2, FcR-TANK [2]: 0.24 nM
- EC50 [3]: 1.99 nM
- % specific cytotoxicity @ 6.67 nM, NUGC4-CLDN18.2, PBMC [4]: 32%
- ADCC EC50, NUGC4-CLDN18.2, PBMC [4]: 5.3 nM
- CDC EC50, human serum, CHO-CLDN18.2 [5]: 1.13 nM
- ADCC EC50, CHO-CLDN18.2, FcR-TANK [6]: 0.008 nM

B2: 413H9F8-cp2-MG-DL (antibody, V domains shown)
VH: DVQLVESGGGLVQPGGSLRLSCAASGFTFSSFGMHWVRQAPGKGLEWVAYISSGSSPIYYVDKLKGRFTISRDNAKNSLYLQMNSLRAEDTAVYYCARAGYAVRNALDYWGQGTLVTVSS
VL: EIVMTQSPPTLSLSPGERVTLSCKSSQSLLNVGNQKNYLAWYQQKPGQAPRLLIYGASTRESGIPARFSGSGSGTDFTLTISSLQPEDFAVYYCQNDLFYPLTFGGGTKVEIK
- ADCC EC50, NUGC4-CLDN18.2, PBMC [1]: 0.0175 nM
- ADCC EC50, CHO-CLDN18.2, FcR-TANK [6]: 0.0024 nM

B5: 282A12F3 (rat hybridoma antibody) (antibody, V domains shown)
VH: QVQLKESGPVLVQPSQTLSLTCTVAGFSLTSYNVYWVRQPPGKGLEWMGVIWNTGATRYNSTLKSRLSISKDTSKSQVFLKMNSLQTEDTATYYCARDSAMPAIPFAYWGQGTLVTVSS
VL: DIVMTQSPSSLAVSAGETVTINCKSSQSLFGSVRQKNYLAWYQQKPGQSPKLLIYLASTRESGVPDRFIGSGSGTDFTLTISSVQAEDLAKYYCQQYYDIPWTFGGGTKLELK
notes: purified rat IgG from hybridoma
- binding result [9]: binds
- binding result [10]: binds

Second part, the binder after the results:

- binding result [7]: no binding
B3: chimeric 357B8F8 (antibody, human IgG1, kappa, V domains shown)
VH: QVQLKESGPGLVAPSQSLSITCTVSGFSLTSYGVHWVRQPPGKGLEWLGVIWPGGNTNYNSALMSRLSISKDNSKSQVFLKMNSLQTDDTAMYYCARDRRLAMDYWGQGTSVTVSS
VL: DIVMTQSPSSLTVTAGEKVTMTCKSSQSLLNSGNQKNYLTWYQQKPGQPPKLLIYWASTRESGVPDRFTGSGSGTDFTLTISILQAEDLAVYYCQNDYSYPFTFGSGTKLEIKR
notes: chimeric human IgG1

- binding result [8]: binds
B4: chimeric 282A12F3 (xi282A12F3) (antibody, human IgG1, kappa, V domains shown)
VH: QVQLKESGPVLVQPSQTLSLTCTVAGFSLTSYNVYWVRQPPGKGLEWMGVIWNTGATRYNSTLKSRLSISKDTSKSQVFLKMNSLQTEDTATYYCARDSAMPAIPFAYWGQGTLVTVSS
VL: DIVMTQSPSSLAVSAGETVTINCKSSQSLFGSVRQKNYLAWYQQKPGQSPKLLIYLASTRESGVPDRFIGSGSGTDFTLTISSVQAEDLAKYYCQQYYDIPWTFGGGTKLELKR
notes: chimeric human IgG1
